# Where no end group is shown, it is not given here.
# Key:
# [1] = biological target: T1, SARS-CoV-2 main protease (M^pro), wild type (SARS-CoV-2, UniProt P0DTD1); test: cell-based or functional assay
# [2] = biological target: T1, SARS-CoV-2 main protease (M^pro), wild …; test: […]
binder,measurement,setting,value
"YLQYAVLRHKRREC (also: cyclic, mode of cyclization not given here) [cyclic peptide 1]","IC50, inhibition of M^pro proteolytic activity (FRET substrate cleavage)",[1],70 nM
same,Ki,[2],14 nM
